Test results as given in PMC11009412, “Pathogenic mutations of human phosphorylation sites affect protein–protein interactions” (Nature Communications, 2024).

B1: WDR83 (protein, UniProt Q9BRX9 1-315, looked up)
WD repeat domain-containing …: MAFPEPKPRPPELPQKRLKTLDCGQGAVRAVRFNVDGNYCLTCGSDKTLKLWNPLRGTLLRTYSGHGYEVLDAAGSFDNSSLCSGGGDKAVVLWDVASGQVVRKFRGHAGKVNTVQFNEEATVILSGSIDSSIRCWDCRSRRPEPVQTLDEARDGVSSVKVSDHEILAGSVDGRVRRYDLRMGQLFSDYVGSPITCTCFSRDGQCTLVSSLDSTLRLLDKDTGELLGEYKGHKNQEYKLDCCLSERDTHVVSCSEDGKVFFWDLVEGALALALPVGSGVVQSLAYHPTEPCLLTAMGGSVQCWREEAYEAEDGAG
B2: ESF1 (protein, UniProt Q9H501 2-851, looked up)
ESF1 homolog: SSKQEIMSDQRFRRVAKDPRFWEMPEKDRKVKIDKRFRAMFHDKKFKLNYAVDKRGRPISHSTTEDLKRFYDLSDSDSNLSGEDSKALSQKKIKKKKTQTKKEIDSKNLVEKKKETKKANHKGSENKTDLDNSIGIKKMKTSCKFKIDSNISPKKDSKEFTQKNKKEKKNIVQHTTDSSLEEKQRTLDSGTSEIVKSPRIECSKTRREMQSVVQLIMTRDSDGYENSTDGEMCDKDALEEDSESVSEIGSDEESENEITSVGRASGDDDGSEDDEEEDEDEEEDEDEDSEDDDKSDSGPDLARGKGNIETSSEDEDDTADLFPEESGFEHAWRELDKDAPRADEITRRLAVCNMDWDRLKAKDLLALFNSFKPKGGVIFSVKIYPSEFGKERMKEEQVQGPVELLSIPEDAPEKDWTSREKLRDYQFKRLKYYYAVVDCDSPETASKIYEDCDGLEFESSCSFIDLRFIPDDITFDDEPKDVASEVNLTAYKPKYFTSAAMGTSTVEITWDETDHERITMLNRKFKKEELLDMDFQAYLASSSEDEEEIEEELQGDDGVNVEEDGKTKKSQKDDEEQIAKYRQLLQVIQEKEKKGKENDMEMEIKWVPGLKESAEEMVKNKLEGKDKLTPWEQFLEKKKEKKRLKRKQKALAEEASEEELPSDVDLNDPYFAEEVKQIGINKKSVKSAKDGTSPEEEIEIERQKAEMALLMMDEDEDSKKHFNYNKIVEHQNLSKKKKKQLMKKKELIEDDFEVNVNDARFQAMYTSHLFNLDPSDPNFKKTKAMEKILEEKARQRERKEQELTQAIKKKESEIEKESQRKSIDPALSMLIKSIKTKTEQFQARKKQKVK
B3: WDR70 (protein, UniProt Q9NW82 1-654, looked up)
WD repeat-containing protein …: MERSGPSEVTGSDASGPDPQLAVTMGFTGFGKKARTFDLEAMFEQTRRTAVERSRKTLEAREKEEEMNREKELRRQNEDIEPTSSRSNVVRDCSKSSSRDTSSSESEQSSDSSDDELIGPPLPPKMVGKPVNFMEEDILGPLPPPLNEEEEEAEEEEEEEEEEENPVHKIPDSHEITLKHGTKTVSALGLDPSGARLVTGGYDYDVKFWDFAGMDASFKAFRSLQPCECHQIKSLQYSNTGDMILVVSGSSQAKVIDRDGFEVMECIKGDQYIVDMANTKGHTAMLHTGSWHPKIKGEFMTCSNDATVRTWEVENPKKQKSVFKPRTMQGKKVIPTTCTYSRDGNLIAAACQNGSIQIWDRNLTVHPKFHYKQAHDSGTDTSCVTFSYDGNVLASRGGDDSLKLWDIRQFNKPLFSASGLPTMFPMTDCCFSPDDKLIVTGTSIQRGCGSGKLVFFERRTFQRVYEIDITDASVVRCLWHPKLNQIMVGTGNGLAKVYYDPNKSQRGAKLCVVKTQRKAKQAETLTQDYIITPHALPMFREPRQRSTRKQLEKDRLDPLKSHKPEPPVAGPGRGGRVGTHGGTLSSYIVKNIALDKTDDSNPREAILRHAKAAEDSPYWVSPAYSKTQPKTMFAQVESDDEEAKNEPEWKKRKI

Tested on: BirA*-FLAG-GATAD1 variants in Flp-In-293 cells
Experiment: BioID proximity labelling of full-length GATAD1 variants (SILAC)
Assay type: cell-based, human
Conditions: GATAD1 WT vs S102P, significant proteins only; for Log2_Ratio.H.L.normalized.WT_S102P_forward: forward experiment (label swap performed, sign inverted against the H/L ratio); for Log2_Ratio.H.L.normalized.WT_S102P_forward / Log2_Ratio.H.L.normalized.WT_S102P_reverse: log2 of normalized H/L ratio; for Ratio.H.L.normalized.WT_S102P_forward: forward experiment; for Log2_Ratio.H.L.normalized.WT_S102P_reverse / Ratio.H.L.normalized.WT_S102P_reverse: reverse experiment
Method in brief: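 Tetracycline-inducible Flp-In-293 T-REx lines expressing N-terminal BirA*-FLAG GATAD1 variants (WT, S102P, S102D, S102A) were SILAC-labelled, induced with 1 μg/mL tetracycline for 24 h and given 50 μM biotin overnight. Streptavidin-enriched proteins were trypsin-digested on-bead and analysed by LC-MS/MS. Label-swapped log2 SILAC ratios beyond ±1 defined differential proteins (n = 2).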

Row | Molecule | Log2_Ratio.H.L.normalized.WT_S102P_forward | Ratio.H.L.normalized.WT_S102P_forward | Log2_Ratio.H.L.normalized.WT_S102P_reverse | Ratio.H.L.normalized.WT_S102P_reverse
1 | B1 | 1.042 | 0.4856 | 1.085 | 2.1217
2 | B2 | 1.318 | 0.401 | 1.077 | 2.1103
3 | B3 | 1.547 | 0.3422 | 1.108 | 2.1553
